Experiment: yeast display, Sf9 membrane polyspecificity reagent, FACS + sequencing; frameworks hold sequencing errors
Procedure, shortened: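 In a synthetic yeast display library (Saccharomyces cerevisiae BJ5465), nanobody expression was induced with galactose for 36–48 hours. FACS gates were set low and high (top ~1%) using anti-HA fluorescence for expression and streptavidin fluorescence for binding of the Sf9 membrane reagent. Each polyreactivity label is drawn from the gate of origin.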

Row | Sequence | polyreactivity (PSR sort gate)
1 | QVQLVESGGGLVQAGGSLRLSCAASGSTFKEYTMGWYRQAPAKERELVAASSKSGDSTYYADSVKGRFTISRDNAKNTVYLQMNSLKPEDTAVYYCNKPTWYTIYDYWGQGTQVTVSS | low polyreactivity
2 | QVQLVESGGGLVQAGGSLRLSCAASGSTFKFNAMGWYRQAPGKEREFVAAITSSGDSTYYADSVKGRFTISRDNAKNTVYLQMNCLKPEDTAVYYCAAEFESSFALGFYYWGQGTEVTVSS | high polyreactivity
3 | QVQLVESGGGLVQAGGSLRLSCAASGSTFKFYTMGWYRQAPGKERELVATIDWSGGSTYYADSVKGRFTISRDNAKNTVYLQMNSLKPEDTAVYYCAAYSRSRNTRLGKYYYWGQGTQVTVSS | high polyreactivity
4 | QVQLVESGGGLVQAGGSLRLSCAASGSTFKFYTMGWYRQAPGKERELVATIDWSGGSTYYADSVKGRFTISRDNAKNTVYLQMNSLKPEDTAVYYCAAYSRSRTTRLGKYYYWGQGTQVTVSS | high polyreactivity
5 | QVQLVESGGGLVQAGGSLRLSCAASGSTFKGNAMGWYRQAPGKERELVAAINRSGTSTYYADSVKGRFTISRDNAKNTVYLQMNSLKPEDTAVYYCAADKAPYSTEGDSWGQGTQVTVSS | high polyreactivity
6 | QVQLVESGGGLVQAGGSLRLSCAASGSTFKIYAMGWYRQAPGKERELVARITGRGGSTYYADSVKGRFTISRDNAKNTVYLQMNSLKPEDTAVYYCAARVYTYYYDLHKRYYWGQGTQVTVSS | high polyreactivity
7 | QVQLVESGGGLVQAGGSLRLSCAASGSTFKKYAMGWYRQAPGKERELVAAITGSGGRTYYADSVKGRFTISRDTAKNTVYLQMNSLKPEDTAVYYCANLNNYGYDYWGQGTQVTVSS | high polyreactivity
8 | QVQLVESGGGLVQAGGSLRLSCAASGSTFKNNAMGWYRQATGKEREFVAGITRRGTSTYYADSVKGRFTISRDNAKNTVYLQMNSLKPEDTAVYYCAVGVYDYTGTYGYWGQGTQVTVSS | high polyreactivity
9 | QVQLVESGGGLVQAGGSLRLSCAASGSTFKPNAMGWSRQAPGKERELVAAINGSGGDTYYADSVKGRFTISRDYANNTFYLQMNSLKPEDTAVYYCAAQWGYYNYWYGYWGQGTQVTVSS | low polyreactivity
10 | QVQLVESGGGLVQAGGSLRLSCAASGSTFKPNAMGWYRQAPGKERELVAAITSGSTYYADSVKGRFTISRDNAKNTVYLQMNSLKPEDTAVYYCAVVTGSFRTRYTYYYWGQGTQVTVSS | high polyreactivity
11 | QVQLVESGGGLVQAGGSLRLSCAASGSTFKPYTMGWYRPAPGKERELVAAISSVDSTYYADSVKGRFTISRDNAKKTVYLQMNSLKPEDTAVYDCNKRKSPTFTYAMNYWGQGTQGTVSS | low polyreactivity
12 | QVQLVESGGGLVQAGGSLRLSCAASGSTFKRYAMGWYRQAPGKERALVASISSGGSTNYADSVKGRFTISRDNAKNTVYLQMHSLKPEDTAVYYCAVSYRSFRYYWERYYSWGQGTQVTVSS | high polyreactivity
13 | QVQLVESGGGLVQAGGSLRLSCAASGSTFKRYTMGWYRQAPGKERELVARISWGGSTTYYAYSVKGRFTISRDNAKNTVYLQMNSLKPEDTAVYYCAASWSWYGNRGTYRYPPRYDYWGQGTQVTVSS | high polyreactivity
14 | QVQLVESGGGLVQAGGSLRLSCAASGSTFKSYAMGWYRQAPGKERELVAAITHRGSTYYADSVKGRFTISRDNAKNTVYLQMNSLKPEDTAVYYCNVRRIGNGRRVDYWGQGTQVTVSS | high polyreactivity
15 | QVQLVESGGGLVQAGGSLRLSCAASGSTFKTYVMGWYRQAPGKERELVAGISDSGGTTYYADSVKGRFTISRDNAKNTVYLQMNSLKPEDTAGYYCAAVLYRRYTRARLDYWGQGTQVTVSS | high polyreactivity
16 | QVQLVESGGGLVQAGGSLRLSCAASGSTFKVNAMGWYRQAAGKEREFVAAITKNGGRTYYADSVKGRFTISRDYAKNTVYLQMNSLKPEDTAVYYCAARLYLPIIVVDLYGYDYWGQGTQVTVSS | low polyreactivity
17 | QVQLVESGGGLVQAGGSLRLSCAASGSTFKVNAMGWYRQAPGKERELVAAISRGGSTYADSVKGRFTISRDNAKNTVYLQMNSLKPEDTAVYYCAAKSRYFQPDEYYYWGQVTQVTVSS | high polyreactivity
18 | QVQLVESGGGLVQAGGSLRLSCAASGSTFKVNVMGCYRKAPVKERELVAAINQSVRGTYYADSVKGRFTISRDNAKNTVYLQMNSLKPEDTAVYYCAAKIIVLRYVLSQEQRRYNYWGQGTQVTVSS | low polyreactivity
19 | QVQLVESGGGLVQAGGSLRLSCAASGSTFKVYAIGWYRQAPGKERELVAGISSGGNTNYADSVKGRFTISRDNAKNTVYLQMNSLKPEDTAVYYCNTDWYLPRYVLLGYFSGTEDYWGQGTQVTVSS | low polyreactivity
20 | QVQLVESGGGLVQAGGSLRLSCAASGSTFKVYAMGWYRQAPGKERELVAAISRSGGRTYYADSVKGRFTISRDNEKNTVYLQMNSLKPEDTAVYYCNSDYTYSQGHYSGSYDYWGQGSQVTVSS | high polyreactivity
21 | QVQLVESGGGLVQAGGSLRLSCAASGSTFKVYTMGWYRPAPGKERELVAAISGGGGSTYYADSVKGRFTISRDNAKNTVYLQMNSLNPEDTAVYYCAAQKRGPGYPYYYWGQGTQVTVSS | high polyreactivity
22 | QVQLVESGGGLVQAGGSLRLSCAASGSTFKYNAMGWSRQAPGKERELVASISRSGGSTYYADSVKGRFTISRDNAKNTVYLQMNSQKPEDTAVYYCNVRRFVHYEYWGQGTQVTVSS | high polyreactivity

Row | Sequence | polyreactivity (PSR sort gate)
23 | QVQLVESGGGLVQAGGSLRLSCAASGSTFKYYAMGWYRQAPAKERELVAAISARTGSTYYADSVKGRFTISRDNAKNTVYLQMNRLKPEDTAVYYCNKLTWRGEVDYWGQGTQVTVSS | high polyreactivity
24 | QVQLVESGGGLVQAGGSLRLSCAASGSTFKYYAMGWYRQAPGKERELVAAISRRGGSTYYADSVKGRFTISRDNAKNTVYLQMNSLKPEDTAVYYCAARLPGYYGIGDYWGQGTQVTVSS | high polyreactivity
25 | QVQLVESGGGLVQAGGSLRLSCAASGSTFKYYAMGWYRQATGKERELLAAITWRGGSTYYADSVKGRFTISRDNAKNSVYLLMKSLKPEDTAVYYCARQRYYGLRTLMEHWGQGTQVTVSS | high polyreactivity
26 | QVQLVESGGGLVQAGGSLRLSCAASGSTFKYYTMGWYRQAPGKERELVAAITSGGSTNYADSVKGRFTISRDNAKNTVYLQMNSLNPEDTAVYYCAAGGRRFYVGVIYDYWGQGNQVTVSS | high polyreactivity
27 | QVQLVESGGGLVQAGGSLRLSCAASGSTFLDNAMGWYRQAPGKERELVAAITQSGSSTYYADSVKGRFTISRDNAKNTVYLQMNSLKPEDTAVYYCAADVPNISFDYWGQGTQVTVSS | low polyreactivity
28 | QVQLVESGGGLVQAGGSLRLSCAASGSTFLDYAMGWYRQAPGKERELVAAITSGGSTYYADSVKGRFTISRDNAKNTVYLQMNSLKPEDTAVYYCAAEQTQLYSFGWDEYWGQGTQVTVSS | low polyreactivity
29 | QVQLVESGGGLVQAGGSLRLSCAASGSTFLDYDMGWYRQAPGKERELVATINSVGSTYYADSVKGRFTISRDNAKNTVYLQMNSLKPEDTAVYYCAARQEPGWYPDVWWEYDYWGQGTQVTVSS | low polyreactivity
30 | QVQLVESGGGLVQAGGSLRLSCAASGSTFLFNVMGWYRQAPGKERELVAAITSGASTYYADSVKGRFTISRDNAKNTVYLQMNSLEPEDTAVYYCAVDYSFRYDYVQRYYYWGQGTQVTVSS | high polyreactivity
31 | QVQLVESGGGLVQAGGSLRLSCAASGSTFLFYAMGWYRQAPGKEREFVDAISWSGGSTFYADSVKGRFTISRYNAKNTVYLQMNSLKPEDTAVYYCAARQDGYSGRKLYYLGQGTQVTVSS | low polyreactivity
32 | QVQLVESGGGLVQAGGSLRLSCAASGSTFLGNDMGWYRQEPGKERELVASINSATSTTYADSVKGRFTISRDNAKNTVYLQMNSLKPEDTAVYYCAARYYRPLDYWGQGTQVTVSS | low polyreactivity
33 | QVQLVESGGGLVQAGGSLRLSCAASGSTFLINAMGWYRQAPGKERELVAAITASGGSTYADSVKGRFTISRDNAKNTVYLQMNSLKPEDTAVYYCAARYFPRHRYYYWGQGTQVTVSS | high polyreactivity
34 | QVQLVESGGGLVQAGGSLRLSCAASGSTFLITALGWYRQAPGKEREFVADISSSDGSTYYADSVKGRFTISRDNAKNTVYLQMNSLKPEDTAVYYCAAAHVEGSYHKYYYWGQGTQVTVSS | high polyreactivity
35 | QVQLVESGGGLVQAGGSLRLSCAASGSTFLNYAMGWYRQAPGKERELVAAISGRGGRTYYADSVKGRFTISRDNAKNTVYLQMNSLKPEDTAVYYCARRVRFPGGTFYYWGQGTQVTVSS | high polyreactivity
36 | QVQLVESGGGLVQAGGSLRLSCAASGSTFLNYVMGWYRQAPGKERELVATINSGDSTNYADSVKGRFTISRDNAKNTVYLQMNSLKPEDTAVYYCAAEGNYWVDYWGQGTQVTVSS | low polyreactivity
37 | QVQLVESGGGLVQAGGSLRLSCAASGSTFLNYVMGWYRQAPGKERELVATINSGDSTTYADSVKGRFTISRDNAKNTVYLQMNSLKPEDTAVYYCNADPYYYSTYWSVKYDYWGQGTQVTVSS | low polyreactivity
38 | QVQLVESGGGLVQAGGSLRLSCAASGSTFLRYAMGWYIQAPGKERELVATISTSRGSTHYADSVKGRFTISRYNAKNTVYLQMNSLKPEDSAVYYCATRGGKWYYRTRQPYPYAMDYWGQGTQVTVSS | high polyreactivity
39 | QVQLVESGGGLVQAGGSLRLSCAASGSTFLRYVMGWYRQAPGKERELVAAIDSGGSTHYADSVKGRFTISRDNAKNTVYLQMNSLKPEDTAVYYCNVDVSSDDWYPSTADFDYWGQGTQVTVSS | high polyreactivity
40 | QVQLVESGGGLVQAGGSLRLSCAASGSTFLSNAMGWYRQAPGKERELVAGITSGTSTYYADSVKGRFTISRDNAKYTVYLQMNSLKPEDTAVYYCNADDAEVLYQYVEYDYWGQGTQVTVSS | low polyreactivity
41 | QVQLVESGGGLVQAGGSLRLSCAASGSTFLSYAMGWYRQAPGKERELVAAISWSDVNTYYADSVKGRFTISRDNAKNTVYLQMNSLKPEDTAVYYCNARYYLYWGQGTQVTVSS | low polyreactivity
42 | QVQLVESGGGLVQAGGSLRLSCAASGSTFLSYAMGWYRQAPGKERELVAVISWSGVSTYYADSVKGRFTISRDNAKNTVYLQMNSLNPEDTEVYYCNTGHHYIRTYGYWGQGTQVTVSS | low polyreactivity
43 | QVQLVESGGGLVQAGGSLRLSCAASGSTFLTKAMGWNRQAPGKERELVAAISRSGGSTYYADSVKGRFTISRDNAKNTVYLQMNSLKPEDTAVYYGAAYSWRYQAWEFGYWGQGTQVTVSS | high polyreactivity

Reference: the nanobody polyreactivity screen of Harvey et al. (2022)
